{"source": "paper PMC4482361", "about": "(Organic & biomolecular chemistry, 2011)", "molecules": {"B1": {"name": "RavNMT (TDP-3-amino-3,6-dideoxy-D-galactose-N,N-dimethyltransferase) (enzyme, Streptomyces ravidus, UniProt D1H0I7 1-265, looked up)", "chain": "MSTLSVSQPGTPPTPADVEQAYGAEHADVYDAIYRGRGRDYAAEADAFLAVLRTRRPEITSLLDVACGTGAHLAALRGSVDHVEGVELSPWMHTLATRQLPGVAVHQDDMRSFNLSRRFSAVTCLFSSVGYLKSVEDLRRTLRTFRAHVAPGGVALVEPWWFPETFLDGYVGSSLVEVDGRTIARVSHTVRAGSTSRMTVEYTVAEPVNGVRRFSDLHVLSLFTREQYEDAFERAGFAVEFLKDGPSGRGLFLGVAPETTDGGPR"}, "B2": {"name": "RavIM (TDP-4-keto-6-deoxy-D-glucose-3,4-ketoisomerase) (enzyme, Streptomyces ravidus, UniProt D1H0I6 1-156, looked up)", "chain": "MTDTTAATGTTAGTDVSRVGKVRPCALMKLQTIGDPRGQLAVVEGAKDIGFPVKRLFYLYDLPTSSVRGDHAHRNLEQFVIPINGSFDVAVDDTVDTAVCRLDDPGQGLYIGPMVWNSLVNFSEGAIALVLASEHYDEADYYRRYDEFLADAGARP"}, "B3": {"name": "RavAMT (TDP-3-keto-6-deoxy-D-galactose-3-aminotransferase) (enzyme, Streptomyces ravidus, UniProt D1H0I5 1-369, looked up)", "chain": "MKVPYLDLKGPHTEIRAELDAAYHRVVDSGWFVLGEEVRAFEEEYAAYCGAAHCVSVATGCDALELALRALDIGPGDEVVVPSATYIATWLAVSETGADVVPVEVDPDTHLLDPAAVEAAVTPATRAVMPVHLYGQPADLPALRRVADRHGLALIDDAAQAHGARLNGTRVGGGGLATATAFSFYPGKNLGALGDGGGILTDDAELAERLRLLRNYGSRRKYHHELKSTNSRLDELHAAVLRAKLPHLDRWNARRAEIAERYRAAFADLPGLRPTAVPEGAEPSWHLYVVCCDDRDAVQRSLTDAGVGTLIHYPVPVHLSPAYADEKRWPAGAFPRAEAIAAQVLSLPMGPHLSDADVSYVIEAVRAAV"}}, "key": {"[1]": {"target": "T1, thymidine monophosphate kinase (TMK) (Escherichia coli, UniProt P0A720)", "T1 sequence (P0A720 1-213)": "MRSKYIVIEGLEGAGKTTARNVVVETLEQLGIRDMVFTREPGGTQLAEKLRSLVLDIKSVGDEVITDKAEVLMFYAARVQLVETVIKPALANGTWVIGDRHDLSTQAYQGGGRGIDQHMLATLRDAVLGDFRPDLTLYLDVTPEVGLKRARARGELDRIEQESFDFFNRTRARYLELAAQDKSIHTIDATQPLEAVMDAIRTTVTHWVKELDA", "assay": "coupled assay with ACK, HPLC", "format": "biochemical", "conditions": "phosphate donor; same"}, "SEC": {"target": "the molecule itself", "assay": "SEC"}}}
{"molecule": "Nc1ncnc2c1ncn2[C@@H]1O[C@H](COP(=O)(O)OP(=O)(O)OP(=O)(O)O)[C@@H](O)[C@H]1O", "note": "[ATP]", "values": [{"measurement": "coupled assay with ACK, HPLC", "setting": "[1]", "value": "ATP serves as a phosphate donor thereby converting into ADP"}]}
{"molecule": "B1", "values": [{"measurement": "stoichiometry N", "setting": "SEC", "value": 2}]}
{"molecule": "B2", "values": [{"measurement": "stoichiometry N", "setting": "SEC", "value": 2}]}
{"molecule": "B3", "values": [{"measurement": "stoichiometry N", "setting": "SEC", "value": 2}]}
